Among the data in the supplement of paper PMC10567573 are protein stability index values, retold here.

B1: PLAGL1 (parent)
chain: TKEKKHQCDHCERCFYTRKDVRRH
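Further: lentivirally expressed fusions sorted by FACS into six bins by GFP to DsRed ratio, PSI derived from sequencing read proportions per bin multiplied by bin number.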

The data set covers variants of B1. The data set is described as follows: protein stability index of a GFP-peptide fusion (GPS, HEK-293T) (PSI 1-6); higher = more stable. Particulars: c terminus: a fixed tail appended.
As for TKEKKHKCDHCERCFYTRKDVRRH [Q7K], the protein stability index came to 3.8.

On to TKEKKHICDHCERCFYTRKDVRRH [Q7I], for which the protein stability index amounted to 3.32.

TKEKKHWCDHCERCFYTRKDVRRH [Q7W]: the protein stability index is 2.77.

Take TKEKKHGCDHCERCFYTRKDVRRH [Q7G]: the protein stability index stood at 2.89.

Take TKEKKHECDHCERCFYTRKDVRRH [Q7E]: the protein stability index worked out at 3.31.

On to TKEKKHACDHCERCFYTRKDVRRH [Q7A], for which the protein stability index was found to be 3.41.

With TKEKKHCCDHCERCFYTRKDVRRH [Q7C], the protein stability index stood at 3.36.

With TKEKKHRCDHCERCFYTRKDVRRH [Q7R], the protein stability index was 3.33.

For TKEKKHMCDHCERCFYTRKDVRRH [Q7M], the protein stability index was 2.71.

Regarding TKEKKHTCDHCERCFYTRKDVRRH [Q7T], the protein stability index was 2.74.

For TKEKKHNCDHCERCFYTRKDVRRH [Q7N], the protein stability index was 3.21.

For the variant TKEKKHPCDHCERCFYTRKDVRRH [Q7P], the protein stability index was found to be 2.82.

For the variant TKEKKHVCDHCERCFYTRKDVRRH [Q7V], the protein stability index turned out to be 3.23.

As for TKEKKHYCDHCERCFYTRKDVRRH [Q7Y], the protein stability index was 2.81.

For the variant TKEKKHSCDHCERCFYTRKDVRRH [Q7S], the protein stability index turned out to be 3.25.

As to TKEKKHHCDHCERCFYTRKDVRRH [Q7H], the protein stability index is 3.73.

Consider TKEKKHDCDHCERCFYTRKDVRRH [Q7D], for which the protein stability index was found to be 3.43.

TKEKKHLCDHCERCFYTRKDVRRH [Q7L]: the protein stability index was 2.54.

TKEKKHFCDHCERCFYTRKDVRRH [Q7F]: the protein stability index turned out to be 2.91.

Consider TAEKKHQCDHCERCFYTRKDVRRH [K2A], for which the protein stability index came to 3.58.

For the variant TVEKKHQCDHCERCFYTRKDVRRH [K2V], the protein stability index worked out at 3.3.

Consider TGEKKHQCDHCERCFYTRKDVRRH [K2G], for which the protein stability index worked out at 3.15.

With TTEKKHQCDHCERCFYTRKDVRRH [K2T], the protein stability index stood at 3.67.

With TDEKKHQCDHCERCFYTRKDVRRH [K2D], the protein stability index was determined as 4.04.

On to TPEKKHQCDHCERCFYTRKDVRRH [K2P], for which the protein stability index came out at 3.1.

For the variant TEEKKHQCDHCERCFYTRKDVRRH [K2E], the protein stability index was determined as 3.65.

With TNEKKHQCDHCERCFYTRKDVRRH [K2N], the protein stability index is 3.21.

For the variant TFEKKHQCDHCERCFYTRKDVRRH [K2F], the protein stability index came out at 3.02.

For the variant TWEKKHQCDHCERCFYTRKDVRRH [K2W], the protein stability index was 3.16.

TYEKKHQCDHCERCFYTRKDVRRH [K2Y]: the protein stability index turned out to be 3.21.

TSEKKHQCDHCERCFYTRKDVRRH [K2S]: the protein stability index was 3.39.

For the variant TIEKKHQCDHCERCFYTRKDVRRH [K2I], the protein stability index stood at 3.08.

As for TQEKKHQCDHCERCFYTRKDVRRH [K2Q], the protein stability index came to 3.67.

As for TCEKKHQCDHCERCFYTRKDVRRH [K2C], the protein stability index was determined as 3.25.

With TREKKHQCDHCERCFYTRKDVRRH [K2R], the protein stability index came out at 3.77.

Regarding TLEKKHQCDHCERCFYTRKDVRRH [K2L], the protein stability index turned out to be 2.75.

As to THEKKHQCDHCERCFYTRKDVRRH [K2H], the protein stability index amounted to 3.55.

As to TMEKKHQCDHCERCFYTRKDVRRH [K2M], the protein stability index is 3.71.

Regarding TKEKKHQCDGCERCFYTRKDVRRH [H10G], the protein stability index was 4.13.

For TKEKKHQCDTCERCFYTRKDVRRH [H10T], the protein stability index worked out at 3.37.

As to TKEKKHQCDMCERCFYTRKDVRRH [H10M], the protein stability index is 3.33.

For the variant TKEKKHQCDRCERCFYTRKDVRRH [H10R], the protein stability index came to 3.41.

Consider TKEKKHQCDICERCFYTRKDVRRH [H10I], for which the protein stability index is 2.71.

As to TKEKKHQCDPCERCFYTRKDVRRH [H10P], the protein stability index was 3.4.

Turning to TKEKKHQCDECERCFYTRKDVRRH [H10E], the protein stability index stood at 3.37.

On to TKEKKHQCDFCERCFYTRKDVRRH [H10F], for which the protein stability index was determined as 2.36.

For the variant TKEKKHQCDNCERCFYTRKDVRRH [H10N], the protein stability index is 3.6.

TKEKKHQCDDCERCFYTRKDVRRH [H10D]: the protein stability index was 3.79.

As to TKEKKHQCDSCERCFYTRKDVRRH [H10S], the protein stability index was found to be 3.68.

Regarding TKEKKHQCDLCERCFYTRKDVRRH [H10L], the protein stability index was found to be 2.55.

Take TKEKKHQCDQCERCFYTRKDVRRH [H10Q]: the protein stability index worked out at 3.47.

For the variant TKEKKHQCDVCERCFYTRKDVRRH [H10V], the protein stability index worked out at 3.37.

Take TKEKKHQCDCCERCFYTRKDVRRH [H10C]: the protein stability index was 3.33.

For the variant TKEKKHQCDKCERCFYTRKDVRRH [H10K], the protein stability index was found to be 3.91.

As for TKEKKHQCDACERCFYTRKDVRRH [H10A], the protein stability index amounted to 3.33.

Turning to TKEVKHQCDHCERCFYTRKDVRRH [K4V], the protein stability index was found to be 3.24.

Turning to TKEHKHQCDHCERCFYTRKDVRRH [K4H], the protein stability index worked out at 3.42.

In the case of TKESKHQCDHCERCFYTRKDVRRH [K4S], the protein stability index was 2.93.

Consider TKEPKHQCDHCERCFYTRKDVRRH [K4P], for which the protein stability index is 3.33.

On to TKECKHQCDHCERCFYTRKDVRRH [K4C], for which the protein stability index amounted to 3.87.

Take TKEEKHQCDHCERCFYTRKDVRRH [K4E]: the protein stability index worked out at 4.01.

In the case of TKENKHQCDHCERCFYTRKDVRRH [K4N], the protein stability index is 3.08.

As for TKETKHQCDHCERCFYTRKDVRRH [K4T], the protein stability index stood at 3.27.

Consider TKEGKHQCDHCERCFYTRKDVRRH [K4G], for which the protein stability index came out at 3.49.

Turning to TKEMKHQCDHCERCFYTRKDVRRH [K4M], the protein stability index came to 3.27.

With TKEFKHQCDHCERCFYTRKDVRRH [K4F], the protein stability index is 3.21.

Turning to TKERKHQCDHCERCFYTRKDVRRH [K4R], the protein stability index came to 3.29.

As to TKEQKHQCDHCERCFYTRKDVRRH [K4Q], the protein stability index was determined as 3.4.

With TKEYKHQCDHCERCFYTRKDVRRH [K4Y], the protein stability index turned out to be 3.03.

Turning to TKELKHQCDHCERCFYTRKDVRRH [K4L], the protein stability index came out at 2.9.

As to TKEDKHQCDHCERCFYTRKDVRRH [K4D], the protein stability index was 3.84.

Consider TKEIKHQCDHCERCFYTRKDVRRH [K4I], for which the protein stability index worked out at 3.57.

TKEAKHQCDHCERCFYTRKDVRRH [K4A]: the protein stability index turned out to be 3.32.

As for TKEWKHQCDHCERCFYTRKDVRRH [K4W], the protein stability index came out at 2.95.

Take DKEKKHQCDHCERCFYTRKDVRRH [T1D]: the protein stability index came out at 3.04.

Regarding EKEKKHQCDHCERCFYTRKDVRRH [T1E], the protein stability index amounted to 3.82.

With NKEKKHQCDHCERCFYTRKDVRRH [T1N], the protein stability index is 3.38.

Consider WKEKKHQCDHCERCFYTRKDVRRH [T1W], for which the protein stability index came out at 3.54.

As to LKEKKHQCDHCERCFYTRKDVRRH [T1L], the protein stability index is 3.34.

On to CKEKKHQCDHCERCFYTRKDVRRH [T1C], for which the protein stability index is 3.75.

Consider KKEKKHQCDHCERCFYTRKDVRRH [T1K], for which the protein stability index stood at 3.59.

As to SKEKKHQCDHCERCFYTRKDVRRH [T1S], the protein stability index is 3.46.

On to QKEKKHQCDHCERCFYTRKDVRRH [T1Q], for which the protein stability index is 3.52.

Consider AKEKKHQCDHCERCFYTRKDVRRH [T1A], for which the protein stability index worked out at 3.1.

Regarding RKEKKHQCDHCERCFYTRKDVRRH [T1R], the protein stability index worked out at 3.37.

Regarding MKEKKHQCDHCERCFYTRKDVRRH [T1M], the protein stability index was found to be 3.39.

With IKEKKHQCDHCERCFYTRKDVRRH [T1I], the protein stability index was found to be 3.57.

Consider GKEKKHQCDHCERCFYTRKDVRRH [T1G], for which the protein stability index came out at 3.68.

On to FKEKKHQCDHCERCFYTRKDVRRH [T1F], for which the protein stability index was 3.1.

Consider VKEKKHQCDHCERCFYTRKDVRRH [T1V], for which the protein stability index stood at 3.5.

PKEKKHQCDHCERCFYTRKDVRRH [T1P]: the protein stability index came to 3.48.

As for YKEKKHQCDHCERCFYTRKDVRRH [T1Y], the protein stability index is 3.31.

For the variant HKEKKHQCDHCERCFYTRKDVRRH [T1H], the protein stability index stood at 3.12.

In the case of TKEKKHQCPHCERCFYTRKDVRRH [D9P], the protein stability index worked out at 3.11.
